Laboratory results from US20030224390A1, “Method of identifying conformation-sensitive binding peptides and uses thereof” (Karo Bio AB, priority 2000, published 2003).

T1: glucocorticoid receptor (Homo sapiens, UniProt P04150)
T1 construct: expressed in transfected cells; host or cells: Huh-7 cells
T1 sequence (P04150 1-777): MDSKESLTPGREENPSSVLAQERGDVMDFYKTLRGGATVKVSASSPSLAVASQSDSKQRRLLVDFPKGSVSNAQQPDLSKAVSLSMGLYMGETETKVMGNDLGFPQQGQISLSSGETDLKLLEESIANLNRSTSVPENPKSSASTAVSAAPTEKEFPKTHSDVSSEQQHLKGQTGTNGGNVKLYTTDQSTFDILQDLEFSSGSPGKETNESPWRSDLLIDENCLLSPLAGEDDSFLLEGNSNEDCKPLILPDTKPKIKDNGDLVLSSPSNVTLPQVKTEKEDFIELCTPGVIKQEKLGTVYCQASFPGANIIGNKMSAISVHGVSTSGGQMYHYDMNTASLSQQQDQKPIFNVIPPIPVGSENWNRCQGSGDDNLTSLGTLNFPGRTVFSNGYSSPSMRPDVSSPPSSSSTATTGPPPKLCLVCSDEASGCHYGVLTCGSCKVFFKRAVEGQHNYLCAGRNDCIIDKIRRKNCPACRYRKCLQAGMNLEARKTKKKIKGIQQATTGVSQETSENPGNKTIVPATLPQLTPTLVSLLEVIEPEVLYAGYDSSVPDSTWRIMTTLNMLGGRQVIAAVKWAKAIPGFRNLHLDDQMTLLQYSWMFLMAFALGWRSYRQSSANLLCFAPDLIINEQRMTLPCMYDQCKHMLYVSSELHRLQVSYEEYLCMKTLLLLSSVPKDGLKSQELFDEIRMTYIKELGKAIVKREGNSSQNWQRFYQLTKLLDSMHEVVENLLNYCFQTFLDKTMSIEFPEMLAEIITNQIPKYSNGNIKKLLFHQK

T2: Glucocorticoid Receptor (GR) (Homo sapiens, UniProt P04150)
T2 construct: peptides to GR in the yeast based system using full-length receptor; expressed in transfected cells; host or cells: yeast
T2 sequence (P04150 1-777): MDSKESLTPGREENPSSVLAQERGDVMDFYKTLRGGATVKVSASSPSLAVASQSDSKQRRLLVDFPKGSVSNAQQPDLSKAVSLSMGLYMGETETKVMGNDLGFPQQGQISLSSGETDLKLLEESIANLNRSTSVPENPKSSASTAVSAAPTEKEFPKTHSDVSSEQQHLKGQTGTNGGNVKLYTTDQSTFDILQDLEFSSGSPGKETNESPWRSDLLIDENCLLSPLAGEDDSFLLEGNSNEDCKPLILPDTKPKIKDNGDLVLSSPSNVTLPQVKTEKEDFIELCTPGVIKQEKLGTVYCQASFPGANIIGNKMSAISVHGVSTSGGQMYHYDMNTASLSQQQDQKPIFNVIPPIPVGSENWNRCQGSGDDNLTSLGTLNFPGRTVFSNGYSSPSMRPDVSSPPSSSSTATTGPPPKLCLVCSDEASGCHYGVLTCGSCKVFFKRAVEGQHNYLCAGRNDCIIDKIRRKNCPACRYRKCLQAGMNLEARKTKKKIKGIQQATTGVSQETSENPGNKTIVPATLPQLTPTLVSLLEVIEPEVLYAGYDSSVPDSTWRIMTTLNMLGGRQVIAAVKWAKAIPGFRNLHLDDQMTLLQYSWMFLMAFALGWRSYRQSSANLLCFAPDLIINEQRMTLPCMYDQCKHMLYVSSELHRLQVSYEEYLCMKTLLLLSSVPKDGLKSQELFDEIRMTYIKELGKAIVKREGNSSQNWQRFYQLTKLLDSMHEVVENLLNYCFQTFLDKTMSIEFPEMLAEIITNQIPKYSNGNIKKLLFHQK

T3: ER β (immobilized, in vitro phage assays), Q92731
T3 chain: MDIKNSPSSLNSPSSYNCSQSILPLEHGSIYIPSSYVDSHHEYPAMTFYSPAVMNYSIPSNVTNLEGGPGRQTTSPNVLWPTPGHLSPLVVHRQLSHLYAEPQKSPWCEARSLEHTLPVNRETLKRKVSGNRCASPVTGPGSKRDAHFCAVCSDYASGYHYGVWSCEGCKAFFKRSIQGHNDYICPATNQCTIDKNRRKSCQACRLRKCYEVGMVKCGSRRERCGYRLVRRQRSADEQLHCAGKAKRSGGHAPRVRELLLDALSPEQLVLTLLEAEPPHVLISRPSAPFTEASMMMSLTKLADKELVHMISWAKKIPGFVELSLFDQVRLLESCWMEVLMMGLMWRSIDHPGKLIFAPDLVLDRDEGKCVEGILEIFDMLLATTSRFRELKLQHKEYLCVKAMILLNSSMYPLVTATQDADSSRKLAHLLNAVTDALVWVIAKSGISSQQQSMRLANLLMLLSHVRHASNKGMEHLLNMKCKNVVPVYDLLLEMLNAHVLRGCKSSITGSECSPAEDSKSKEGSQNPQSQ


Assays:
[1] = target: T1, glucocorticoid receptor; assay: Mammalian cell based peptide/GR interaction assay in Huh-7 cells, 96-/384-well luciferase
Description: (§1) We have performed a limited amount of in vivo screenings for peptides to GR in the yeast based system using full-length receptor and either dexamethasone or medroxyprogesterone acetate as ligands. We have a single peptide sequence that we have followed up on based on its specificity profile in yeast. This peptide was isolated on MPA liganded GR, and is termed GRMPA. Its sequence is as follows: […] (SEQ ID NO:268).
We have isolated numerous peptides using phage display to the GR ligand binding domain and have formatted cell based assays in mammalian cells for screening large compound sets. We have formatted the assay as stated above for 96-well plates and for 384-well plates. To format the assay to 384-well plates the number of cells per well were scaled down to 5,000 Huh-7 cells per well. Similar ratios of DNA constructs and lipection reagents were used in both assays for transfections prior to seeding the cells into the assay plates. We have also carried out a screen of a 60,000 compound set with one of the phage display isolated peptides in this mammalian cell based format. This peptide interacts with the glucocorticoid receptor in the presence of both agonists (e.g. fluticasone propionate and dexamethasone) and antagonists (RU486). For the compound screen cells were transfected in suspension with DNA constructs as described above prior to seeding 5,000 cells per well. […]

[2] = target: T2, Glucocorticoid Receptor (GR); assay: Yeast based two-hybrid system with full-length GR (Example 503); format: cell-based
Description: as §1

[3] = target: T3, ER β (immobilized, in vitro phage …); assay: phage ELISA; ICI 182,780 1 µM
[4] = target: T3, ER β (immobilized, in vitro phage …); assay: phage ELISA; clomiphene 10 µM
[5] = target: T3, ER β (immobilized, in vitro phage …); assay: phage ELISA; raloxifene 1 µM
[6] = target: T3, ER β (immobilized, in vitro phage …); assay: phage ELISA; 4-OH tamoxifen 1 µM

Molecule	Interaction with GR in the presence of all ligands (agonists, partial agonists, and antagonists) [1]	Interaction with GR in the presence of partial agonists ([2]; MPA, cortivazol, and deoxycorticosterone)	Interaction with GR in the presence of antagonists ([2]; RU486)	Interaction with GR in the presence of full agonists ([2]; fluticasone propionate and dexamethasone)	phage ELISA grade [3]	phage ELISA grade [4]	phage ELISA grade [5]	phage ELISA grade [6]
EFVARYGQLLGWRHPCS [GRMPA]	interacted	interacted	interacted	not				
SSNHQSSRLIELLSR (modifications not checked) [Phage # 4 (Table 2)]					0	0	0	0
